According to article PMC6616311, “Reconstitution of Microtubule Nucleation In Vitro Reveals Novel Roles for Mzt1” (Current Biology, 2019):

T1: Alp6-MBP (S. pombe, UniProt Q9USQ2 1-832)
T1 construct: Alp6, S. pombe γ-TuSC protein, homolog of human GCP3; also called Alp6 (homolog of human GCP3) with C-terminal MBP-6xHis tag; tagged subunit of γ-TuSC^Alp6-MBP; source: High Five insect cells (MultiBac baculovirus), coexpressed with partners; in lysate, and purified on amylose; not shown: MBP, C-terminal, kept; 6xHis, C-terminal, kept
T1 sequence (looked up): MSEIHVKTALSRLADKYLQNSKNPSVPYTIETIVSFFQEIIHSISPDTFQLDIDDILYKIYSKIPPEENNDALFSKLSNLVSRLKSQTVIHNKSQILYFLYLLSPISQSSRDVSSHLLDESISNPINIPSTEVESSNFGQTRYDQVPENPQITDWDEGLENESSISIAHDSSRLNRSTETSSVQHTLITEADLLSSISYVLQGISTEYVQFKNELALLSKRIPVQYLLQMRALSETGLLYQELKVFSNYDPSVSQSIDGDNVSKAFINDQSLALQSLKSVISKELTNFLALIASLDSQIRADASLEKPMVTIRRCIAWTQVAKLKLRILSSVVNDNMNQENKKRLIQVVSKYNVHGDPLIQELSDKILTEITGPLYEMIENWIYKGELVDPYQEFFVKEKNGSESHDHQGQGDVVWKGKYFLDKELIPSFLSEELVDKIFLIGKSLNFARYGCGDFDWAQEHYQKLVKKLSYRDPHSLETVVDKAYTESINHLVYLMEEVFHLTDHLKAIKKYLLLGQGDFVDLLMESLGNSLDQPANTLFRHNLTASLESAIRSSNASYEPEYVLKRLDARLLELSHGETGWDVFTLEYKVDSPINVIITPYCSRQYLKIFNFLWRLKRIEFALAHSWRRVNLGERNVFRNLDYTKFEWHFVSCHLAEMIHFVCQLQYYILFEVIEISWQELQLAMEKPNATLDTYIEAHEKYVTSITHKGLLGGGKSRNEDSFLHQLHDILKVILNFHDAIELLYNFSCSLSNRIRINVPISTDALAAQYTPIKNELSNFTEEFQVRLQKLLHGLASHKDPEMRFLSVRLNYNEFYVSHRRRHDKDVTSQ

B1: γ-tubulin (Gtb1), untagged (natural protein, S. pombe, UniProt P25295 1-446, looked up)
chain: MGREIITLQAGQCGNQIGSQFWQQLCLEHGIGPDGTLESFATEGVDRKDVFFYQSDDTRYIPRAILIDLEPRVVNNILSDTYGSLYNPENILITKNGGGAGNNWANGYSHAERIFEDIMDMIDREADGSDSLEGFSLLHSIAGGTGSGLGSFLLERLNDRYPKKIIQTYSVFPNSQSVSDVVVQPYNSLLALKRLTLNADSVVVLDNAALAHIAADRLHTQNPTFHQQNQLVSTVMSASTTTLRYPGYMNNDLVSIIASLIPSPRCHFLLTSYTPFTNQQVEEAKAIRKTTVLDVMRRLLLPKNQMVSVNPSKKSCFISILDIIQGEADPADVHKSLLRIRERRYASFIPWGPASIQVALSKKSPYIKTNHRVSGLMLANHTSIASLFKRTLDQYDRLRKRNAFLEQYKKEAIFEDDLNEFDSSRDVVADLINEYEACEDPNYLSL
notes: γ-tubulin Gtb1 of S. pombe; source: High Five insect cells (MultiBac baculovirus), coexpressed with partners; in lysate, and co-purified in complexes
B2: Alp4 (untagged) (natural protein, S. pombe, UniProt Q9Y705 1-784, looked up)
chain: MVRSISSVLAKEESENGSPIPALEEGSVYHVSLKSEGVSPFSDRIQLNYLYDGKTFSDPSNLNIHQQEACLINELLNAFMGMEGVFVHLQDMKASSEFETIIMPPSFYILPGFDLGIKDIASEMLEMGSHYLSITAFIESRSHFEYGFVNHALCAALRKFVMDYVVLIMQCENQSRIDPNFSLQTLRLYTLPTSRSLRQVYLILRDLLLSMEKNASSSDDLGLSNIDDLLEQLNEGNDISHVVNATRSKKKVCKGGQVISFLTESLTKYAGDPVARKILTYLLREASRPYTKMLNEWIHLGLVNDPYDEFMIKIHKGITSMQLDEDYTDEYWEKRYVIREDQVPPQLLDLQNKVLFAGKYLNVVLECRKGVNNLASLNAKDDTQNQLLWPSTFDDDNFTLNIMNAYVYANESLLQLLQSSQSLYAHLYSLKHYFFLDQSDFFTTFLDNAQHELRKPAKYISITKLQSQLDLALRQPGTITATDPHKEYVTVEVNQTSLIDWLMHIVSISGLEEGTSSQGNEVWNESITKQADVGNETRNFESEHNRSTQGTSKVGSDKDINGFETMQLCYKVPFPLSLILSRKAIIRYQLLFRYFLLLRHVEMQLENSWVQHSKNSAWRLNSSNAKIEQWKRNSWLLRTRMLSFVQKIIYYTTSEVIETHWGKFMGELENARTVDNLMQEHIDFLDTCLKECMLTNSRLLKVQSKLLNTCAMFASYTSTFTRSLYLLENSEESFDEGRMDKMEEILRRYEDSFSRHLKSLVNACNYFASTETAALLSLVMKLTG
notes: Alp4, S. pombe γ-TuSC protein, homolog of human GCP2; also called homolog of human GCP2; source: High Five insect cells (MultiBac baculovirus), coexpressed with partners; in lysate, and co-purified in complexes
B3: Mzt1-6xHis (natural protein, S. pombe, UniProt P0CF96 1-64, looked up)
chain: MSESTKETIEVLYEIGTLLGTELDKTTLSLCISLCENNVHPEAIAQIIREIRMAQEQTVDTEPS
notes: Mzt1 of S. pombe; also called MOZART1 homolog; source: High Five insect cells (MultiBac baculovirus); coexpressed in lysate, co-purified in complexes, or purified alone (Ni2+ IMAC, Superdex 75); not shown: 6xHis, C-terminal, kept
B4: 6xHis-Mto1[bonsai] (domain or fragment, S. pombe, UniProt O94488 131-549, looked up)
chain: TTDDEQLSPVLTANQGFQSQEQYEEDSYNNYDYTSDPSSPNYISSSLDQLPHLDDEDDLQLTPIKEERNYLHSQDAPTTNALSKKISDILIPASAMKDLKDRKNALAKEFEESQPGSSLTLKEQANVIDNLRKEVFGLKLKCYFLYDQLNKFHDQEVQDIMKQNIDLKTLTMELQRAVAGYEKKISGLESRIKPDQSFNLSTPSPAPSNLITLQSRYSQALSELETTKRAFAALRKEKSKKTNYSVGAYNEDRNVLSNMLDNERREKEALLQELESLRVQLSKKVPMPAKNTDERVIETLQRSNELLRMDISMQNEALLLRKQENDRLVKQVEELTVALNSGKMNAIVEAESSKNELWDSMMVSRMKTQEQSIELTRLYKQLQDIEEDYENKLMRMEQQWREDVDQLQEYVEEITQELQ
notes: Mto1 of S. pombe (CM1-domain protein), amino acids 131-549; lacks residues 1-130 and 550-1,115; also called Mto1(131-549); source: High Five insect cells (MultiBac baculovirus), coexpressed with Mto2; in lysate, and co-purified in complexes; not shown: 6xHis, N-terminal, kept
B5: Mto1/2[bonsai] complex (complex, S. pombe)
chain 1: B4 chain
chain 2: MSEHNYQSDREVAEDPFLNYEASANQLSSNSRESTPRGSPWRAGMRSASLMTEPLEDSMYSDNNYLDNGVSFTKDENPLYSPSWPSLADANVNSMKSNNAIQEHKAAKFVSEKSLEKVSTADNNLVLQELENLRERLNQVELQLSERPSSYLGYHNNLSPYRSPNSYPSLLPSTHSPHSPAPLSTMQTALMRLRTYHPSPIILKPVEQAVNHAITLVNTSPSSVVDALCRSLAELCLGLVQEAIDASILSQQESSNSLDLVRHTPPLNYTSSVDSSPQRMASDSYGRPSLHLNDPFPSVDLQSNELSHHNVRTTLFSDDSRFHSKIHTHSTPPSQMYSAASHFRYRSDPSTRHVSNSTNKSSLHPSPTSLRVAHPIIPQRASPASQSFPSLQDTPSP
notes: Mto1 of S. pombe, amino acids 131-549 (Mto1[bonsai]); as m7; Mto2 of S. pombe; as m8; Copy numbers of the two chains in the complex are not measured here; also called 6xHis-Mto1/2[bonsai]; source: High Five insect cells (MultiBac baculovirus); coexpressed in lysate, or purified (ammonium sulfate, Ni2+ Fractogel, Superose 6); not shown: 6xHis, N-terminal, kept

Experiments:
Alp6-MBP [1] = target: T1, Alp6-MBP; experiment: pull-down; amylose resin purification via Alp6-MBP from lysates of High Five cells coexpressing Alp6-MBP, Alp4 and Gtb1, with or without Mzt1-6xHis; HB100 buffer (40 mM K-HEPES, 100 mM KCl, 1 mM EGTA, 1 mM MgCl2, 0.1 mM GTP, 1 mM DTT pH 7.5), overnight 4°C, maltose elution, SDS-PAGE; details: partners not purified
[2] = target: the molecule itself; experiment: SEC-MALS; 100 μL of 1.98 mg/mL Mzt1 on Superdex-75 10/300 GL in 100 mM Tris, 50 mM NaCl, pH 7.5, 22°C
Alp6-MBP [3] = target: T1, Alp6-MBP; experiment: cross-linking; cross-linking mass spectrometry of purified MGM holocomplex (from coexpression) with EDC/Sulfo-NHS, 1:2:4.4 (w/w/w), 90 min, 18°C, 40 mM K-HEPES, 300 mM NaCl, 1 mM MgCl2 pH 7.5; details: both partners purified
Alp4 (untagged) = target: B2; experiment: as above; details: both partners purified
[4] = target: the molecule itself; experiment: glycerol density-gradient centrifugation; 10-30% glycerol density gradient in HB100, 55,000 rpm, 4°C, 45 or 80 min; one affinity-purified complex alone, 100 μL at 1 mg/mL; S values against marker proteins

Binder: B1
- binding result (Alp6-MBP [1]): binds

Binder: B2
- binding result (Alp6-MBP [1]): binds

Binder: B3
- stoichiometry N [2]: 2

Binder: B4
- binding result (Alp6-MBP [3]): binds
- binding result (Alp4 (untagged)): binds

Binder: B5
- binding result [4]: binds
